Square brackets hold non-standard residues; d marks the D form. GABA = NCCCC(=O)O
Tests used:
Experiment in all cases: peptide library pulldown on immobilized Nb, LC-MS of supernatant; ratio vs GFP-Nb control (1 = not captured, 0 = captured)
[1] = biological target: T1, BC2T W10S library peptide (human)
T1 construct: also called BC2TW10X: S
T1 peptide: Ac-PDRKAAVSHSQQ-NH2
How it was run: (§1)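 Unbound peptide left in supernatant after 1 h pulldown in PBS/0.01% CHAPS measured by reversed-phase LC-MS (8–30% eluent B gradient, 20 min).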

[2] = biological target: T2, BC2T S8Q library peptide (human)
T2 construct: also called BC2TS8X: Q
T2 peptide: Ac-PDRKAAVQHWQQ-NH2
How it was run: as §1

[3] = biological target: T3, BC2T S8F library peptide (human)
T3 construct: also called BC2TS8X: F
T3 peptide: Ac-PDRKAAVFHWQQ-NH2
How it was run: as §1

[4] = biological target: T4, BC2T W10C* library peptide (human, SMILES …)
T4 construct: also called BC2TW10X: C*; C(Abu)
T4 peptide: Ac-PDRKAAVSH[GABA]QQ-NH2
How it was run: as §1

[5] = biological target: T5, BC2T H9W library peptide (human)
T5 peptide: Ac-PDRKAAVSWWQQ-NH2
How it was run: as §1

[6] = biological target: T6, BC2T H9Q library peptide (human)
T6 peptide: Ac-PDRKAAVSQWQQ-NH2
How it was run: as §1

[7] = biological target: T7, BC2T Q12C* library peptide (human, SMILES …)
T7 construct: also called C(Abu)
T7 peptide: Ac-PDRKAAVSHWQ[GABA]-NH2
How it was run: as §1

[8] = biological target: T8, BC2T S8T library peptide (human)
T8 construct: also called BC2TS8X: T
T8 peptide: Ac-PDRKAAVTHWQQ-NH2
How it was run: as §1

[9] = biological target: T9, BC2T Q12M library peptide (human)
T9 peptide: Ac-PDRKAAVSHWQM-NH2
How it was run: as §1

[10] = biological target: T10, BC2T Q11(I/L) library peptide, version 1 (N-terminal acetyl, C-terminal amide)
T10 construct: Ile and Leu versions are isobaric; two versions resolved but not assigned; also called I/L1
How it was run: as §1

[11] = biological target: T11, BC2T Q11F library peptide (human)
T11 peptide: Ac-PDRKAAVSHWFQ-NH2
How it was run: as §1

[12] = biological target: T12, BC2T S8P library peptide (human)
T12 construct: also called BC2TS8X: P
T12 peptide: Ac-PDRKAAVPHWQQ-NH2
How it was run: as §1

[13] = biological target: T13, BC2T W10E library peptide (human)
T13 construct: also called BC2TW10X: E
T13 peptide: Ac-PDRKAAVSHEQQ-NH2
How it was run: as §1

[14] = biological target: T14, BC2T Q11P library peptide (human)
T14 peptide: Ac-PDRKAAVSHWPQ-NH2
How it was run: as §1

[15] = biological target: T15, BC2T Q12E library peptide (human)
T15 peptide: Ac-PDRKAAVSHWQE-NH2
How it was run: as §1

[16] = biological target: T16, BC2T S8(I/L) library peptide, version 2 (N-terminal acetyl, C-terminal amide)
T16 construct: Ile and Leu versions are isobaric; two versions resolved but not assigned; also called BC2TS8X: I/L2
How it was run: as §1

[17] = biological target: T17, BC2T H9D library peptide (human)
T17 peptide: Ac-PDRKAAVSDWQQ-NH2
How it was run: as §1

[18] = biological target: T18, BC2T H9G library peptide (human)
T18 peptide: Ac-PDRKAAVSGWQQ-NH2
How it was run: as §1

[19] = biological target: T19, BC2T W10M library peptide (human)
T19 construct: also called BC2TW10X: M
T19 peptide: Ac-PDRKAAVSHMQQ-NH2
How it was run: as §1

B1: BC2-Nb(R106E) (VHH)
VHH: QVQLVESGGGLVQPGGSLTLSCTASGFTLDHYDIGWFRQAPGKEREGVSCINNSDDDTYYADSVKGRFTIFMDNAKDTVYLQMNSLKPEDTAIYYCAEARGCKRGEYEYDFWGQGTQVTVSS
notes: Headlock mutant; immobilized on beads in the library pulldown
[1]
  ratio: 1.2
[2]
  ratio: 0.9
[3]
  ratio: 0.9
[4]
  ratio: 1.1
[5]
  ratio: 0.1
[6]
  ratio: 0.3
[7]
  ratio: 0.1
[8]
  ratio: 0.1
[9]
  ratio: 0.2
[10]
  ratio: 0.2
[11]
  ratio: 0.1
[12]
  ratio: 1
[13]
  ratio: 1.2
[14]
  ratio: 0.9
[15]
  ratio: 0.6
[16]
  ratio: 0.9
[17]
  ratio: 0.4
[18]
  ratio: 0.7
[19]
  ratio: 1.1
